Experimental data from article PMC5983854, “Structure-guided approach to site-specific fluorophore labeling of the lac repressor LacI” (PLoS ONE, 2018).
Positions count from the first letter of the chain named. Names may count otherwise.

B1: LacI^ΔCterm (lactose operon repressor LacI, tetramerization helix residues 339-360 replaced with a 6xHis tag) (domain or fragment, E. coli, UniProt P03023 1-338, looked up)
chain: MKPVTLYDVAEYAGVSYQTVSRVVNQASHVSAKTREKVEAAMAELNYIPNRVAQQLAGKQSLLIGVATSSLALHAPSQIVAAIKSRADQLGASVVVSMVERSGVEACKAAVHNLLAQRVSGLIINYPLDDQDAIAVEAACTNVPALFLDVSDQTPINSIIFSHEDGTRLGVEHLVALGHQQIALLAGPLSSVSARLRLAGWHKYLTRNQIQPIAEREGDWSAMSGFQQTMQMLNEGIVPTAMLVANDQMALGAMRAITESGLRVGADISVVGYDDTEDSSCYIPPLTTIKQDFRLLGQTSVDRLLQLSQGQAVKGNQLLPVSLVKRKTTLAPNTQTAS
notes: Lactose operon repressor LacI, E. coli, 360 amino acid monomer; the native 22 C-terminal amino acids (tetramerization helix, residues 339-360) are replaced with a 6xHis tag, the rest is wild type; only the replaced stretch 339-360 is printed; source: E. coli TOP10 (pBAD24, arabinose-induced), purified (HisTrap HP, Superdex 200 SEC); not shown: His6, C-terminal, kept
B2: LacI^Dimer (LacI^ΔCterm with C107A, C140A; Cys281 retained) (domain or fragment, E. coli, UniProt P03023 1-338, looked up)
chain: B1 chain with C107A, C140A
notes: Lactose operon repressor LacI, E. coli; residues 339-360 replaced with a 6xHis tag; Cys107 and Cys140 replaced with alanine, Cys281 retained; source: E. coli TOP10 (pBAD24, arabinose-induced), purified (HisTrap HP, Superdex 200 SEC); not shown: His6, C-terminal, kept

How the values were obtained:
[1] = system: LacIDimer-S28C (Escherichia coli); experiment: EMSA; conditions: apparent Kd; 3 mM MgCl2; EMSA: 1 nM DNA, 0.5-100 nM LacI, 10 mM Tris pH 7.5, 50 mM NaCl, 3 mM MgCl2, 1 mM TCEP, 0.1 mg/mL BSA, 5% glycerol, room temperature 1 h; TIRF: 100 mM phosphate
[2] = target: the molecule itself; experiment: SEC; analytical gel filtration on HiLoad 16/600 Superdex 200, 0.2 mL/min, buffer C (200 mM Tris-HCl pH 7.5, 200 mM KCl, 1 mM EDTA, 0.5 mM TCEP); column calibrated with proteins of known molecular weight; dimer to monomers

Row | Molecule | Kd [1] | stoichiometry N [2]
1 | 5'-Cy5 O1 operator dsDNA | 5.63 nM | –
2 | B1 | – | 2
3 | B2 | – | 2
